# Measured values: paper doi:10.1101/2023.02.23.529735 (bioRxiv, 2023)
# B1: H-NS86-VC (H-NS amino acids 1-86 fused at the C-terminus to the mVenus-mCherry VC domain) (domain or fragment, E. coli, UniProt P0ACF8 1-86, looked up)
# chain: MVSEALKILNNIRTLRAQARECTLETLEEMLEKLEVVVNERREEESAAAAEVEERTRKLQQYREMLIADGIDPNELLNSLAAVKSGT
# B2: H-NS-VC (Histone-like Nucleoid Structuring protein H-NS fused at its C-terminus to the mVenus-mCherry VC domain) (natural protein, E. coli, UniProt P0ACF8 1-137, looked up)
# chain: MGSEALKILNNIRTLRAQARECTLETLEEMLEKLEVVVNERREEESAAAAEVEERTRKLQQYREMLIADGIDPNELLNSLAAVKSGTKAKRAQRPAKYSYVDENGETKTWTGQGRTPAVIKKAMDEQGKSLDDFLIKQ
# B3: H-NS64-VC (H-NS amino acids 1-64 fused at the C-terminus to the mVenus-mCherry VC domain) (domain or fragment, E. coli, UniProt P0ACF8 1-64, looked up)
# chain: MVSEALKILNNIRTLRAQARECTLETLEEMLEKLEVVVNERREEESAAAAEVEERTRKLQQYREM
# Key:
# FRET or BRET [1] = biological target: the molecule itself; experiment: FRET or BRET
# FRET or BRET [2] = biological target: the molecule itself; experiment: FRET or BRET; remark: listed apart in the source
Protein,"FRET/Donor ratio, exponentially growing cells (FRET or BRET [1])","FRET ratio (acceptor/donor) in foci, no additive (FRET or BRET [2])","FRET ratio (acceptor/donor) in the solution outside the foci, no additive (FRET or BRET [2])","FRET/Donor ratio, after a 6 min heat shock at 42 °C (FRET or BRET [1])","FRET/Donor ratio, spheroplasts returned from 880 mOsm to 220 mOsm (FRET or BRET [1])"
B1,0.132,0.073,0.068,,
B2,0.105,0.07,0.082,0.162,0.181
B3,0.126,,,,
